Assay results published in patent publication US11015206B2, “Compositions and methods comprising sequences having hydroxyphenylpyruvate dioxygenase (HPPD) activity” (PIONEER HI-BRED INTERNATIONAL, INC., priority 2014, dated 2021).
Substitutions are numbered along the chain they refer to. In names and notes the source's numbering stands. Values belong to the molecule of their own block, whether it stands above or below them.

Assays:
Format in all cases: biochemical, Z. mays
[1] = test system: 4-hydroxyphenylpyruvate dioxygenase (HPPD); assay: Insensitivity parameter (ON × OFF) and trait fitness (ON × OFF × kcat/KM or × kcat); conditions: for ON × OFF × kcat, Value / ON × OFF × kcat, Fold vs wt / ON × OFF, fold vs wt / ON × OFF (parameters with tembotrione): Table 5, tembotrione; for ON × OFF × kcat, Fold vs wt / ON × OFF, fold vs wt: fold vs maize wild type HPPD; for ON × OFF (parameters with tembotrione): insensitivity parameter
Procedure, shortened: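 Trait fitness combines catalysis and insensitivity as kcat/KM × ON rate ratio × OFF rate ratio. The insensitivity parameter is the product of ON and OFF rate ratios, used in place of KD because the ON rate ratio is inverse.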

[2] = test system: 4-hydroxyphenylpyruvate dioxygenase (HPPD); assay: OFF rate ratio: release of inhibitor from pre-formed enzyme-inhibitor complex; conditions: Table 5; tembotrione
Procedure, shortened: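 Inhibitor release from pre-formed complex (enzyme 7.2 μM, inhibitor 8 μM, 1 h RT) tracked as accelerating HPPD activity at 320 nm over 12 min, coupled via 50 nM HGD with 100 μM HPP at pH 7. OFF rate ratio: steady-state velocity relative to uninhibited initial velocity.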

[3] = test system: 4-hydroxyphenylpyruvate dioxygenase (HPPD); assay: Estimate of kcat from initial rate at saturating hydroxyphenylpyruvate without inhibitor (ON rate ratio assay); conditions: Table 5; single substitutions in Round 7 variant 9070 (SEQ ID NO:2); estimate from initial rate at saturating hydroxyphenylpyruvate without inhibitor
Procedure, shortened: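 kcat was estimated from the initial reaction rate with known enzyme level (60 or 120 nM HPPD). Hydroxyphenylpyruvate was at a saturating 100 μM, with no inhibitor present.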

[4] = test system: 4-hydroxyphenylpyruvate dioxygenase (HPPD); assay: ON rate ratio: HPPD reaction rate with vs without inhibitor in the 70 to 90 second interval; conditions: Table 5; tembotrione
Procedure, shortened: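 Indicator of inhibitor on-rate: reaction velocity in the 70 to 90 second window with 4 μM inhibitor divided by that without. Reactions contained 100 μM HPP and 60 or 120 nM HPPD; slower binding gives a larger ratio.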

[5] = test system: 4-hydroxyphenylpyruvate dioxygenase (HPPD); assay: HPPD activity coupled assay with HGD; substrate saturation kinetic parameters (kcat, KM); conditions: Table 6; for kcat: single substitutions in SEQ ID NO:2
Procedure, shortened: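 Coupled continuous assay: His-tagged HPPD (5 to 240 nM, E. coli-expressed, Ni-NTA-purified) with 50 nM P. aeruginosa HGD in 25 mM Hepes pH 7, 2 mM ascorbate, 10 μM FeSO4; maleylacetoacetate followed at 320 nm. KM and Vmax from Lineweaver-Burke fits over 3.33–100 μM HPP.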

[6] = DKN (diketonitrile form of isoxaflutole)

Insensitivity parameter, ON × OFF [1, 6]: 0.33 | Insensitivity parameter, ON × OFF ([1]; Mesotrione, Table 6): 0.65 | Insensitivity parameter, ON × OFF ([1]; Sulcotrione): 0.78 | ON × OFF, fold vs wt [1]: 48.2 | ON × OFF (parameters with tembotrione) [1]: 0.25 | Insensitivity parameter, ON × OFF ([1]; Tembotrione): 0.34 | Insensitivity parameter, ON × OFF ([1]; Topramezon): 0.49 | OFF ratio (parameters with tembotrione) [2]: 0.33 | ON ratio (parameters with tembotrione) [4]: 0.75
B1: 385V: single substitution L385V in SEQ ID NO:2 (protein)
chain: MGPTPTATAAGAAVAAASAAEQAAFRLVGHRNFVRFNPRSDRFQTLAFHHVELWCADAASAAGRFSFALGVPLAARSDLSTGNSAHASLLLRSGSLSLLFTAPYAHGADAATAALPSFSAAAARRFAADHGLAVRAVALRVADAEDAFRASVAAGARPAFGPVDLGRGFRLAEVELYGDVVLRYVSYPDGAAGEPFLPGFEGVASPGAADYGLSRFDHIVGNVPELAPAAAYMAGFTGFHEFAEFTTEDVGTTESGLNSMALANNSENVLLPLNEPVHGTKRRSQIQTFLDHHGGPGVQHIALASDDVLRTLREMRARSAMGGFEFLPPPLSDYYDGVRRCAGDVLTEAQINECQELGVMVDRDDQGVLLQIFTKPVGDRPTFFVEIIQRIGCMEKDEKGQEYQKGGCGGFGKGNFGQLFKSIEDYEKSLEAKQAAAAATAQGS
modifications: Zea mays variant form created by artificial means.
ON × OFF × kcat/km fold vs Round 7, variant 9070 ([1]; DKN (isoxaflutole diketonitrile)): 1.1 | ON × OFF × kcat/km fold vs Round 7, variant 9070 ([1]; Sulco (sulcotrione)): 1.0 | ON × OFF × kcat, Value [1]: 5.26 | ON × OFF × kcat, Fold vs wt [1]: 4.92 | ON × OFF × kcat/km fold vs Round 7, variant 9070 ([1]; Topra (topramezone)): 1.3 | ON × OFF × kcat/km fold vs Round 7, variant 9070 ([1]; meso (mesotrione)): 1.0 | ON × OFF × kcat/km fold vs Round 7, variant 9070 ([1]; tembo (tembotrione)): 1.4 | kcat [3]: 0.357 s⁻¹ | Km [5]: 1.91 µM | kcat [5]: 0.505 s⁻¹

Insensitivity parameter, ON × OFF [1, 6]: 0.34 | Insensitivity parameter, ON × OFF ([1]; Mesotrione, Table 6): 0.51 | Insensitivity parameter, ON × OFF ([1]; Sulcotrione): 0.63 | ON × OFF, fold vs wt [1]: 32.6 | ON × OFF (parameters with tembotrione) [1]: 0.17 | Insensitivity parameter, ON × OFF ([1]; Tembotrione): 0.25 | Insensitivity parameter, ON × OFF ([1]; Topramezon): 0.32 | OFF ratio (parameters with tembotrione) [2]: 0.22 | ON ratio (parameters with tembotrione) [4]: 0.77
B2: 360L: single substitution 360L in SEQ ID NO:2 (protein)
chain: B1 chain with M360L, V385L
modifications: Zea mays variant form created by artificial means.
ON × OFF × kcat, Value [1]: 4.41 | ON × OFF × kcat, Fold vs wt [1]: 4.12 | kcat [3]: 0.442 s⁻¹ | Km [5]: 1.71 µM | kcat [5]: 0.543 s⁻¹

Insensitivity parameter, ON × OFF [1, 6]: 0.38 | Insensitivity parameter, ON × OFF ([1]; Mesotrione, Table 6): 0.45 | Insensitivity parameter, ON × OFF ([1]; Sulcotrione): 0.56 | ON × OFF, fold vs wt [1]: 30.5 | ON × OFF (parameters with tembotrione) [1]: 0.16 | Insensitivity parameter, ON × OFF ([1]; Tembotrione): 0.33 | Insensitivity parameter, ON × OFF ([1]; Topramezon): 0.37 | OFF ratio (parameters with tembotrione) [2]: 0.20 | ON ratio (parameters with tembotrione) [4]: 0.77
B3: 191L: single substitution 191L in SEQ ID NO:2 (protein)
chain: B1 chain with A191L, V385L
modifications: Zea mays variant form created by artificial means.
ON × OFF × kcat, Value [1]: 3.35 | ON × OFF × kcat, Fold vs wt [1]: 3.13 | kcat [3]: 0.358 s⁻¹ | Km [5]: 2.74 µM | kcat [5]: 0.548 s⁻¹

Insensitivity parameter, ON × OFF [1, 6]: 0.29 | Insensitivity parameter, ON × OFF ([1]; Mesotrione, Table 6): 0.45 | Insensitivity parameter, ON × OFF ([1]; Sulcotrione): 0.58 | ON × OFF, fold vs wt [1]: 32.4 | ON × OFF (parameters with tembotrione) [1]: 0.17 | Insensitivity parameter, ON × OFF ([1]; Tembotrione): 0.20 | Insensitivity parameter, ON × OFF ([1]; Topramezon): 0.27 | OFF ratio (parameters with tembotrione) [2]: 0.22 | ON ratio (parameters with tembotrione) [4]: 0.75
B4: 390N: single substitution 390N in SEQ ID NO:2 (protein)
chain: B1 chain with V385L, R390N
modifications: Zea mays variant form created by artificial means.
ON × OFF × kcat, Value [1]: 5.00 | ON × OFF × kcat, Fold vs wt [1]: 4.67 | kcat [3]: 0.505 s⁻¹ | Km [5]: 2.86 µM | kcat [5]: 0.837 s⁻¹

Insensitivity parameter, ON × OFF [1, 6]: 0.26 | Insensitivity parameter, ON × OFF ([1]; Mesotrione, Table 6): 0.53 | Insensitivity parameter, ON × OFF ([1]; Sulcotrione): 0.59 | ON × OFF, fold vs wt [1]: 24.5 | ON × OFF (parameters with tembotrione) [1]: 0.13 | Insensitivity parameter, ON × OFF ([1]; Tembotrione): 0.19 | Insensitivity parameter, ON × OFF ([1]; Topramezon): 0.27 | OFF ratio (parameters with tembotrione) [2]: 0.16 | ON ratio (parameters with tembotrione) [4]: 0.80
B5: 431F: single substitution 431F in SEQ ID NO:2 (protein)
chain: B1 chain with V385L, E431F
modifications: Zea mays variant form created by artificial means.
ON × OFF × kcat, Value [1]: 3.61 | ON × OFF × kcat, Fold vs wt [1]: 3.37 | kcat [3]: 0.482 s⁻¹ | Km [5]: 1.77 µM | kcat [5]: 0.513 s⁻¹

Insensitivity parameter, ON × OFF [1, 6]: 0.37 | Insensitivity parameter, ON × OFF ([1]; Mesotrione, Table 6): 0.39 | Insensitivity parameter, ON × OFF ([1]; Sulcotrione): 0.16 | ON × OFF, fold vs wt [1]: 46.0 | ON × OFF (parameters with tembotrione) [1]: 0.23 | Insensitivity parameter, ON × OFF ([1]; Tembotrione): 0.31 | Insensitivity parameter, ON × OFF ([1]; Topramezon): 0.32 | OFF ratio (parameters with tembotrione) [2]: 0.34 | ON ratio (parameters with tembotrione) [4]: 0.68
B6: 376W: single substitution 376W in SEQ ID NO:2 (protein)
chain: B1 chain with P376W, V385L
modifications: Zea mays variant form created by artificial means.
ON × OFF × kcat, Value [1]: 5.42 | ON × OFF × kcat, Fold vs wt [1]: 5.07 | kcat [3]: 0.385 s⁻¹ | Km [5]: 5.51 µM | kcat [5]: 0.602 s⁻¹

Insensitivity parameter, ON × OFF [1, 6]: 0.32 | Insensitivity parameter, ON × OFF ([1]; Mesotrione, Table 6): 0.51 | Insensitivity parameter, ON × OFF ([1]; Sulcotrione): 0.62 | ON × OFF, fold vs wt [1]: 32.3 | ON × OFF (parameters with tembotrione) [1]: 0.16 | Insensitivity parameter, ON × OFF ([1]; Tembotrione): 0.25 | Insensitivity parameter, ON × OFF ([1]; Topramezon): 0.31 | OFF ratio (parameters with tembotrione) [2]: 0.22 | ON ratio (parameters with tembotrione) [4]: 0.76
B7: 189P: single substitution 189P in SEQ ID NO:2 (protein)
chain: B1 chain with D189P, V385L
modifications: Zea mays variant form created by artificial means.
ON × OFF × kcat, Value [1]: 4.31 | ON × OFF × kcat, Fold vs wt [1]: 4.02 | kcat [3]: 0.437 s⁻¹ | Km [5]: 3.35 µM | kcat [5]: 0.697 s⁻¹

Insensitivity parameter, ON × OFF [1, 6]: 0.30 | Insensitivity parameter, ON × OFF ([1]; Mesotrione, Table 6): 0.47 | Insensitivity parameter, ON × OFF ([1]; Sulcotrione): 0.60 | ON × OFF, fold vs wt [1]: 29.0 | ON × OFF (parameters with tembotrione) [1]: 0.15 | Insensitivity parameter, ON × OFF ([1]; Tembotrione): 0.22 | Insensitivity parameter, ON × OFF ([1]; Topramezon): 0.29 | OFF ratio (parameters with tembotrione) [2]: 0.20 | ON ratio (parameters with tembotrione) [4]: 0.74
B8: 205T: single substitution 205T in SEQ ID NO:2 (protein)
chain: B1 chain with S205T, V385L
modifications: Zea mays variant form created by artificial means.
ON × OFF × kcat, Value [1]: 3.72 | ON × OFF × kcat, Fold vs wt [1]: 3.48 | kcat [3]: 0.418 s⁻¹ | Km [5]: 2.72 µM | kcat [5]: 0.573 s⁻¹

Insensitivity parameter, ON × OFF [1, 6]: 0.26 | Insensitivity parameter, ON × OFF ([1]; Mesotrione, Table 6): 0.52 | Insensitivity parameter, ON × OFF ([1]; Sulcotrione): 0.63 | ON × OFF, fold vs wt [1]: 23.2 | ON × OFF (parameters with tembotrione) [1]: 0.12 | Insensitivity parameter, ON × OFF ([1]; Tembotrione): 0.22 | Insensitivity parameter, ON × OFF ([1]; Topramezon): 0.28 | OFF ratio (parameters with tembotrione) [2]: 0.15 | ON ratio (parameters with tembotrione) [4]: 0.79
B9: 227G: single substitution 227G in SEQ ID NO:2 (protein)
chain: B1 chain with A227G, V385L
modifications: Zea mays variant form created by artificial means.
ON × OFF × kcat, Value [1]: 4.09 | ON × OFF × kcat, Fold vs wt [1]: 3.83 | kcat [3]: 0.577 s⁻¹ | Km [5]: 2.61 µM | kcat [5]: 0.755 s⁻¹
